Source: publication PMC5052687

B1: MCvar1 PfEMP1 CIDRα2.8 domain (residues 576-745, mutant [Plasmodium falciparum] / human CD36 ectodomain (residues 35-439) with C-terminal BAP tag, biotinylated [modified: biotin on the BAP tag (in vitro, BirA ligase); biotin … (parent)
chain 1: EDKIMSYNAFFWMWVHDMLIDSIKWRDEHGRCINKDKGKTCIKGCNKKCISFQKWVEQKKTEWGKIKDHFRKQKDIPKDWTHDDFLQTLLMKDLLLEIIQDTYGDANEIKRIEALLEQAGVGGIDFAALAGLYTKGFVAEKDTTIDKLLQHEQKEADKCLKTHTDDTCPP
chain 2: QKTIKKQVVLEEGTIAFKNWVKTGTEVYRQFWIFDVQNPQEVMMNSSNIQVKQRGPYTYRVRFLAKENVTQDAEDNTVSFLQPNGAIFEPSLSVGTEADNFTVLNLAVAAASHIYQNQFVQMILNSLINKSKSSMFQVRTLRELLWGYRDPFLSLVPYPVTTTVGLFYPYNNTADGVYKVFNGKDNISKVAIIDTYKGKRNLSYWESHCDMINGTDAASFPPFVEKSQVLQFFSSDICRSIYAVFESDVNLKGIPVYRFVLPSKAFASPVENPDNYCFCTEKIISKNCTSYGVLDISKCKEGRPVYISLPHFLYASPDVSEPIDGLNPNEEEHRTYLDIEPITGFTLQFAKRLQVNLLVKPSEKIQVLKNLKRNYIVPILWLNETGTIGDEKANMFRSQVTGKIN

Variants of: B1
Assay: SPR
Settings: with human CD36 ectodomain (residues 35-439) with C-terminal BAP tag, plateau of the top sensorgram (highest analyte concentration of the series), concentrations not given, parent: 62, read off a plot

For chain 1 E97A, which response is on record?
Its response is 40 RU.

Which response does the source give for chain 1 Q73A here?
Its response is 27 RU.
